Assay [1] deals with p85α, the regulatory subunit of PI3K, endogenous, mouse primary CD4+ T cells (mouse, UniProt P26450 2-724). The assay can be described thus: co-IP (anti-ICOS IP, immunoblot), mouse CD4+ T cells unstimulated or stimulated with anti-CD3, anti-ICOS or both (FIG. 6a).
Assay [2] addresses TRAF5, endogenous, mouse primary CD4+ T cells (mouse, UniProt P70191 1-558). Put plainly: anti-ICOS IP and immunoblot, mouse primary CD4+ T cells restimulated with anti-CD3 plus anti-ICOS (FIG. 14).
For assay [3], the target named is T1, IKKϵ, endogenous, mouse primary CD4+ T cells (mouse, UniProt Q9R0T8 1-717).
T1 construct: also called IKKi
T1 sequence (looked up): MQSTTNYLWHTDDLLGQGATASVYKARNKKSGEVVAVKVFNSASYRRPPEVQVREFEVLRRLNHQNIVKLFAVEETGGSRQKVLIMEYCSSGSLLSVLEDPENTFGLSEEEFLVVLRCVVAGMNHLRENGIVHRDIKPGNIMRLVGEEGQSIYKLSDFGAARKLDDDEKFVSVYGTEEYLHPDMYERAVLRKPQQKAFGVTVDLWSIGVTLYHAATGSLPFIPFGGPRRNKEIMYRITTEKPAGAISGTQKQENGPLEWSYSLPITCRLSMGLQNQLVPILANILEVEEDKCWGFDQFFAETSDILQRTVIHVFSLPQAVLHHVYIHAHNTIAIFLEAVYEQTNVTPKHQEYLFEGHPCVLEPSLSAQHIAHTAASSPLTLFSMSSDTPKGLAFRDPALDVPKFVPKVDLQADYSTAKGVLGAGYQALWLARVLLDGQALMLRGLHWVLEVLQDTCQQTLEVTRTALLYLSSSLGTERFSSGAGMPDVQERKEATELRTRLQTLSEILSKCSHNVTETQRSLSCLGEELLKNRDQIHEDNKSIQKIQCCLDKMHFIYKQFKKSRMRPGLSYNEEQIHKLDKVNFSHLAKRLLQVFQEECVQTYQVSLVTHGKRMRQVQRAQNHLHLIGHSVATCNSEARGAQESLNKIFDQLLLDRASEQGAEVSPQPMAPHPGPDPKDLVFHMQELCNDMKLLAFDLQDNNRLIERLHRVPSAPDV
The description is as above.

The target of assay [4] is T2, TRAF3, endogenous, mouse primary CD4+ T cells (mouse, UniProt Q60803 1-567).
T2 sequence (looked up): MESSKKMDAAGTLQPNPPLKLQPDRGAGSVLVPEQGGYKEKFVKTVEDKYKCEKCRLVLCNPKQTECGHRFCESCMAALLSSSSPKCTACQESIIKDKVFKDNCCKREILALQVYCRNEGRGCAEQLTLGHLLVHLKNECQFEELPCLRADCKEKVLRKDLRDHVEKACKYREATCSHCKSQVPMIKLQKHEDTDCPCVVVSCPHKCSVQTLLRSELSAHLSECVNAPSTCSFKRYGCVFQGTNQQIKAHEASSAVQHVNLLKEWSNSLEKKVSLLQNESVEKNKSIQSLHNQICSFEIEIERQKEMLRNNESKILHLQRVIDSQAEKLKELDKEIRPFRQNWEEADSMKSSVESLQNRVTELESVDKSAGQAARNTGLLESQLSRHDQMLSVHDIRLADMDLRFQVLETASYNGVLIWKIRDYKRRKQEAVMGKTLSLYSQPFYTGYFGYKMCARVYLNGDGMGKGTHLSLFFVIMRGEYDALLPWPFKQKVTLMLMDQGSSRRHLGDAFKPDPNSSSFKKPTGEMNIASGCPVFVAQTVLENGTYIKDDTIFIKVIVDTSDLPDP
The assay is described as above.

The target in assay [5] is T3, TRAF2, endogenous, mouse primary CD4+ T cells (mouse, UniProt P39429 2-501).
T3 sequence (looked up): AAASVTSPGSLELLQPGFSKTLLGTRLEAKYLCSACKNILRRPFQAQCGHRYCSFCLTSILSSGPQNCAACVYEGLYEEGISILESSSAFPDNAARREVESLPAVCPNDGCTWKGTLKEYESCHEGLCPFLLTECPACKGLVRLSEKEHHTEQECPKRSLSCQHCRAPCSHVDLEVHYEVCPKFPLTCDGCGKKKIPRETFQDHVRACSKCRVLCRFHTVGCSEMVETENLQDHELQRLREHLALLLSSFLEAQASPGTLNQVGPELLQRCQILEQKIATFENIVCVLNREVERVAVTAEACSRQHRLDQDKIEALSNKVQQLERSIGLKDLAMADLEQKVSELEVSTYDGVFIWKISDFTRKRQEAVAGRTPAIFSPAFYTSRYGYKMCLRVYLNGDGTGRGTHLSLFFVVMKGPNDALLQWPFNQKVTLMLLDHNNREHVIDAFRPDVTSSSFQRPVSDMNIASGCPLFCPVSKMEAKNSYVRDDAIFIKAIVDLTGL
Described as above.

In assay [6] the target is T4, TANK-binding kinase 1 (TBK1), endogenous, mouse primary CD4+ T cells (mouse, UniProt Q9WUN2 1-729).
T4 construct: also called endogenous TBK1
T4 sequence (looked up): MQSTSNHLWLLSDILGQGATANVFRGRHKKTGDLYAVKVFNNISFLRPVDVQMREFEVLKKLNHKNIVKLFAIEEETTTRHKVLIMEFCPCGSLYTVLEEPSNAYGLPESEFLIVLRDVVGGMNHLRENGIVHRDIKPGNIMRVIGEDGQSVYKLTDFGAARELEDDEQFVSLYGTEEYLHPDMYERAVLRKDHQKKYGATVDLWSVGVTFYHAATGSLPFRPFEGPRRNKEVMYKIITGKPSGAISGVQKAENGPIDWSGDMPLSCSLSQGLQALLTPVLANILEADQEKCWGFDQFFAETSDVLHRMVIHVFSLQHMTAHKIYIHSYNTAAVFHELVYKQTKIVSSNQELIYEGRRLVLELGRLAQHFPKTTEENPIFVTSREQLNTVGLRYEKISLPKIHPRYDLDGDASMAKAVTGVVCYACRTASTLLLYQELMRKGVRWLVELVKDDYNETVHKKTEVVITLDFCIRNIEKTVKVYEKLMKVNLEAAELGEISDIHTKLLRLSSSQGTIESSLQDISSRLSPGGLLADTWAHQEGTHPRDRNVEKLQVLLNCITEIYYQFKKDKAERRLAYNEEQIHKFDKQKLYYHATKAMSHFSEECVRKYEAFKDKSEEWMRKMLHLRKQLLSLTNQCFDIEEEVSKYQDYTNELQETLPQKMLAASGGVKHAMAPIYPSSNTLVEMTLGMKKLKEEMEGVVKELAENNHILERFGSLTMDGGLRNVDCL
The assay can be described thus: co-IP (anti-ICOS IP, immunoblot), mouse primary CD4+ T cells (FIG. 2a). The text has this:
IPs or whole cell lysates (WCL) were immunoblotted with the indicated Abs. 5% WCL was used as input to control for IP Western. […] Jurkat T cells transfected with WT ICOS, mIProx, YF or tailless (TL) ICOS plasmids were stimulated with anti-CD3 plus −ICOS mAbs prior to IP and immunoblotting. […] In vitro activated primary mouse CD4⁺ T cells were stimulated with anti-CD3 plus the indicated costimulatory mAbs, and IP or WCL were subjected to immunoblotting with the indicated Abs. Shown are representative of three experiments.
The human leukemic Jurkat T cell line, JTAg, was previously described (Li, J et al. J Immunol 2013, 191(1): 200-207; Rolf J et al., J Immunol 2010, 185(7): 4042-4052) and the HEK 293T cell line was obtained from ATCC. These cell lines have not been recently STR profiled but tested negative for mycoplasma contamination. JTAg cells in logarithmic growth phase were transfected with plasmid DNAs by electroporation and incubated for 24 hours.

TRAF5, endogenous, mouse primary CD4+ T cells, sequence (P70191 whole entry): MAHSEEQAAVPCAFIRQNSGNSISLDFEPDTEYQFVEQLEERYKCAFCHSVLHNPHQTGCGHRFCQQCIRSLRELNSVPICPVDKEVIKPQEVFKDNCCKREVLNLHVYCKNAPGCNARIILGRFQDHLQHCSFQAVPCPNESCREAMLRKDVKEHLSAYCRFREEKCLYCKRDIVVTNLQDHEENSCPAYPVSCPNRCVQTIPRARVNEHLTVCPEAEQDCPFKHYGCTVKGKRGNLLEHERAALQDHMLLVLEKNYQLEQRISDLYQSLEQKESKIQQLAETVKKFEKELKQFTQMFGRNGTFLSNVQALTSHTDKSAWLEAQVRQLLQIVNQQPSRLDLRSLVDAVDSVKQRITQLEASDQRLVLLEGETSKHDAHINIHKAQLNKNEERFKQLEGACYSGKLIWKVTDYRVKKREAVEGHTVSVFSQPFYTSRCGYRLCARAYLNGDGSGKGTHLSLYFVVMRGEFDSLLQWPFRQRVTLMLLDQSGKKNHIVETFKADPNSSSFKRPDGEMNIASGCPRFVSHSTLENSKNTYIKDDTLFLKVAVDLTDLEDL
p85α, the regulatory subunit of PI3K, endogenous, mouse primary CD4+ T cells, sequence (P26450 2-724): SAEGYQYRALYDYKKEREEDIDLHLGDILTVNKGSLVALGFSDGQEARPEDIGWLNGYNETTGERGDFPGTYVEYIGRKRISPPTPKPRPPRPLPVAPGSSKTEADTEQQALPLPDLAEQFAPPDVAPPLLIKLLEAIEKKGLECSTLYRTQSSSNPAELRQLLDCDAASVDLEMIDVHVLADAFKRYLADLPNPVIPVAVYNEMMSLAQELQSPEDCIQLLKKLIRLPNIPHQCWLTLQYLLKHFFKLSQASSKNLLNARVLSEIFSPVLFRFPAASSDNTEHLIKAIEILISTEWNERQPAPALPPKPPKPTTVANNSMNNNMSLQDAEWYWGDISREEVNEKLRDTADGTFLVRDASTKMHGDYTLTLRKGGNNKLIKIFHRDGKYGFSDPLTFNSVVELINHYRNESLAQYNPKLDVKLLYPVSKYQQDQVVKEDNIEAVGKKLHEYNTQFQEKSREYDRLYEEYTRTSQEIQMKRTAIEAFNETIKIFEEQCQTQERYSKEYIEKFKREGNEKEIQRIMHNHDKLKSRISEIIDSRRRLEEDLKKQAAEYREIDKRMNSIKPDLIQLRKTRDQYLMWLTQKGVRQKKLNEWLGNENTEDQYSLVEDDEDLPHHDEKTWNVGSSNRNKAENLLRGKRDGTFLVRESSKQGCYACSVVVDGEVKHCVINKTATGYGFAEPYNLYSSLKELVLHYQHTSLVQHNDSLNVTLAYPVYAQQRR

B1: ICOS, endogenous, of mouse primary CD4+ T cells (receptor)
chain: EINGSADHRMFSFHNGGVQISCKYPETVQQLKMRLFREREVLCELTKTKGSGNAVSIKNPMLCLYHLSNNSVSFFLNNPDSSQGSYYFCSLSIFDPPPFQERNLSGGYLHIYESQLCCQLKLWLPVGCAAFVVVLLFGCILIIWFSKKKYGSSVHDPNSEYMFMAAVNTNKKSRLAGVTS
With B1, the binding result was “binds” in assay [1]; “no binding” in assay [2]; “no binding” in assay [3]; “no binding” in assay [4]; “no binding” in assay [5]; “binds” in assay [6].

The record behind these values is patent US20180369326A1 (LA JOLLA INSTITUTE FOR ALLERGY AND IMMUNOLOGY, published 2018).
